T1: TIGIT (UniProt Q495A1 22-141, limits assumed)
T1 construct: construct not described; also called T cell immunoreceptor with Ig and ITIM domains
T1 sequence (looked up): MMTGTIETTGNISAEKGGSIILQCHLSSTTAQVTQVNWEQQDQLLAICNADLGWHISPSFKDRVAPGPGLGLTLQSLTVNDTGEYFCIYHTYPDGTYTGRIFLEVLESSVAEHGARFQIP

T2: human TIGIT-Fc (human, UniProt Q495A1 22-141, limits assumed)
T2 construct: not shown: Fc; not described
T2 sequence (looked up): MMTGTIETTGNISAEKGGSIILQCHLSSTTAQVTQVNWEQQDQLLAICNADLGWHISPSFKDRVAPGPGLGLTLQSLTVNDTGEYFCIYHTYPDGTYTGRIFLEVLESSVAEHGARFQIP

T3: recombinant human TIGIT (human, UniProt Q495A1 22-141, limits assumed)
T3 construct: also called T cell immunoreceptor with Ig and ITIM domains
T3 sequence (looked up): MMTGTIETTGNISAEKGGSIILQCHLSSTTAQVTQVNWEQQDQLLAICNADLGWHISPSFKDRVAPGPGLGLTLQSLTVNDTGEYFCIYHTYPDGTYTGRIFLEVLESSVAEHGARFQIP


Assays:
TIGIT [1] = biological target: T1, TIGIT; assay: SPR, VHH-V5-His
human TIGIT-Fc [2] = biological target: T2, human TIGIT-Fc; assay: CD155 competition ELISA, single point; also: test concentration or dose not given here
Protocol: (§1) TIGIT/CD155 inhibition of VHH-Fcs were assessed using an ELISA assay (Table 10B). Briefly, human TIGIT-Fc was coated on a plate & then incubated with VHH-Fcs and human CD155-biotin. Bound CD155-biotin was detected using a streptavidin-HRP conjugate visualized with TMB. Strong inhibitors from the single point screen were titrated to determine EC50 (Table 10C).

recombinant human TIGIT = biological target: T3, recombinant human TIGIT; assay: SPR (Carterra), average
Protocol: Binding affinities of VHH-Fc proteins to recombinant human TIGIT were measured by SPR using a Carterra instrument (Table 10A). […] Average values reported from measurements from 1-2 samples.

TIGIT [3] = biological target: T1, TIGIT; assay: SPR, VHH-V5-His; unit inferred
human TIGIT-Fc [4] = biological target: T2, human TIGIT-Fc; assay: CD155 competition ELISA, titration
Protocol: as §1

Row | Binder | RU (TIGIT [1]) [RU] | OD (450 nm) (human TIGIT-Fc [2]) [OD] | Kd (TIGIT [3]) [nM] | EC50 (human TIGIT-Fc [4]) [nM] | further results
1 | TIGIT-30-52 VHH-V5-His (VHH, not shown: V5 and His tags) VHH: EVQLVESGGGLVQAGGSLRLSCAASGRTFSNYFMGWFRQAPGKERESVATVTWRDNITYYADSVKGRFTISADNAKNTVYLQMNSLKPEDTAVYYCASAGRWGQGTQVTVSS | 270 |  |  |  | 
2 | TIGIT-29-10 VHH-V5-His (VHH, not shown: V5 and His tags) VHH: EVQLVESGGGLVQAGGSLRLSCAASGRTFSNYGMGWFRQAPGKEREFVSGISGSGGRTSYADSVKGRFTISADNAKNTVYLQMNSLKPEDTAVYYCAANLWYPVDRLNTGFNYWGQGTQVTVSS | 36 |  | 323 |  | 
3 | TIGIT-29-06 VHH-V5-His (VHH, not shown: V5 and His tags) VHH: EVQLVESGGGLVQAGGSLRLSCAASGGTFRSYVMGWFRQAPGKEREWVATINSSGSRTYYADSVKGRFTISADNAKNTVYLQMNSLKPEDTAVYYCAARPNYRDYEYWGQGTQVTVSS | 26100 |  |  |  | 
4 | TIGIT-30-43 VHH-V5-His (VHH, not shown: V5 and His tags) VHH: EVQLVESGGGLVQAGGSLRLSCAASGFTFSTSWMGWFRQAPGKERELVAARNSGGNTNYADSVKGRFTISADNAKNTVYLQMNSLKPEDTAVYYCAADVWYGSTWRNWGQGTQVTVSS | 407 |  | 107 |  | 
5 | TIGIT-30-01 VHH-V5-His (VHH, not shown: V5 and His tags) VHH: EVQLVESGGGLVQAGGSLRLSCAASGFAFSSYWMGWFRQAPGKERELVAARNSGGNTNYADSVKGRFTISADNAKNTVYLQMNSLKPEDTAVYYCAADVWYGSTWRNWGQGTQVTVSS | 664 |  | 7460 |  | 
6 | TIGIT-30-40 VHH-V5-His (VHH, not shown: V5 and His tags) VHH: EVQLVESGGGLVQAGGSLRLSCAASGFTFSGNWMGWFRQAPGKEREWVVGISSGGSTHYADSVKGRFTISADNAKNTVYLQMNSLKPEDTAVYYCAADVWYGSTWRNWGQGTQVTVSS | 113 |  | 222 |  | 
7 | TIGIT-30-30 VHH-V5-His (VHH, not shown: V5 and His tags) VHH: EVQLVESGGGLVQAGGSLRLSCAASGGTFSGRGMGWFRQAPGKEREWVSSVYIFGGSTYYADSVKGRFTISADNAKNTVYLQMNSLKPEDTAVYYCANSNKPKFDWGQGTQVTVSS | 3 |  |  |  | 
8 | TIGIT-30-15 VHH-V5-His (VHH, not shown: V5 and His tags) VHH: EVQLVESGGGLVQAGGSLRLSCAASGFTFSGNWMGWFRQAPGKEREWVSGISSGGGRTYYADSVKGRFTISADNAKNTVYLQMNSLKPEDTAVYYCAADVWYGSTWRNWGQGTQVTVSS | 66 |  | 215 |  | 
9 | TIGIT-30-20 VHH-V5-His (VHH, not shown: V5 and His tags) VHH: EVQLVESGGGLVQAGGSLRLSCAASGPTFSIYDMGWFRQAPGKEREFVAVINWSRGSTFYADSVKGRFTISADNAKNTVYLQMNSLKPEDTAVYYCAAGVWSSLRHTAANWGQGTQVTVSS | 69 |  | 195 |  | 
10 | TIGIT-29-01 VHH-V5-His (VHH, not shown: V5 and His tags) VHH: EVQLVESGGGLVQAGGSLRLSCAASGRTFSNYAMGWFRQAPGKEREFVAAITWSGTRTDYADSVKGRFTISADNAKNTVYLQMNSLKPEDTAVYYCAAAAWTIYEYDYWGQGTQVTVSS | 88 |  | 365 |  | 
11 | TIGIT-29-33 VHH-V5-His (VHH, not shown: V5 and His tags) VHH: EVQLVESGGGLVQAGGSLRLSCAASGFIFSTYAMGWFRQAPGKERELVSAITRSGITTYYADSVKGRFTISADNAKNTVYLQMNSLKPEDTAVYYCAAAAWTIYEYDYWGQGTQVTVSS | 202 |  |  |  | 
12 | TIGIT-29-12 VHH-V5-His (VHH, not shown: V5 and His tags) VHH: EVQLVESGGGLVQAGGSLRLSCAASGSTFSSYAMGWFRQAPGKEREFVAAITWSGTRTNYADSVKGRFTISADNAKNTVYLQMNSLKPEDTAVYYCAAAAWTIYTYDSWGQGTQVTVSS | 464 |  | 8580 |  | 
13 | TIGIT-29-07 VHH-V5-His (VHH, not shown: V5 and His tags) VHH: EVQLVESGGGLVQAGGSLRLSCAASGSIFSNYAMGWFRQAPGKEREFVATISRGGTRTNYADSVKGRFTISADNAKNTVYLQMNSLKPEDTAVYYCAAAAWTIYAYNYWGQGTQVTVSS | 26 |  | 465 |  | 
14 | TIGIT-29-30 VHH-V5-His (VHH, not shown: V5 and His tags) VHH: EVQLVESGGGLVQAGGSLRLSCAASGFTFSSYAMGWFRQAPGKEREFVAAITWSGTRTDYADSVKGRFTISADNAKNTVYLQMNSLKPEDTAVYYCAAAAWRYSEYDYWGQGTQVTVSS | 77 |  | 232 |  | 
15 | TIGIT-29-18 VHH-V5-His (VHH, not shown: V5 and His tags) VHH: EVQLVESGGGLVQAGGSLRLSCAASGSTFSNYAMGWFRQAPGKEREFVSAINSSGSRTYYADSVKGRFTISADNAKNTVYLQMNSLKPEDTAVYYCAARLWGTWTAGDYDYWGQGTQVTVSS | 157 |  | 352 |  | 
16 | TIGIT-29-34 VHH-V5-His (VHH, not shown: V5 and His tags) VHH: EVQLVESGGGLVQAGGSLRLSCAASGFTFRNYAMGWFRQAPGKEREFVSSISSSSSRTSYADSVKGRFTISADNAKNTVYLQMNSLKPEDTAVYYCAARLWGTWTAGDYDYWGQGTQVTVSS | 167 |  | 967 |  | 
17 | TIGIT-29-22 VHH-V5-His (VHH, not shown: V5 and His tags) VHH: EVQLVESGGGLVQAGGSLRLSCAASGSILSSYTMGWFRQAPGKEREFVSTISRSSTRTYYADSVKGRFTISADNAKNTVYLQMNSLKPEDTAVYYCAARLWGTWTAGDYDYWGQGTQVTVSS | 123 |  | 500 |  | 
18 | TIGIT-30-49 VHH-V5-His (VHH, not shown: V5 and His tags) VHH: EVQLVESGGGLVQAGGSLRLSCAASGNIFSRYIMGWFRQAPGKEREWVAGISNGGTTKYADSVKGRFTISADNAKNTVYLQMNSLKPEDTAVYYCAQGWKIVPTNWGQGTQVTVSS | 99 |  | 945 |  | 

Second part, led by results:

Row | RU (TIGIT [1]) [RU] | OD (450 nm) (human TIGIT-Fc [2]) [OD] | Kd (TIGIT [3]) [nM] | EC50 (human TIGIT-Fc [4]) [nM] | Binder | further results
19 |  | 0.827 |  |  | TIGIT-SC135 (Fc fusion, VHH-Fc) VHH: EVQLVESGGGLVQPGGSLRLSCAASGFAFGDSWMGWFRQAPGKEREWVASVLRGGTLRAYAVSVKGRFTISADNSKNAAYLQMNSLKPEDTAVYYCARASIVGTTTLVWGQGTLVTVSS | Kd (recombinant human TIGIT): 1670 nM; koff (recombinant human TIGIT): 0.21 s⁻¹; kon (recombinant human TIGIT): 126000 M⁻¹ s⁻¹
20 |  | 0.263 |  | 11.9 | TIGIT-SC149 (Fc fusion, VHH-Fc) VHH: EVQLVESGGGLVQPGGSLRLSCAASGFTLENNMMGWFRQAPGKEREFVAAISRSGTLKAYADSVKGRFTISADNSKNTAYLQMNSLKPEDTAVYYCAKVQGPYCSGGSCYLYTFDLWGQGTLVTVSS | 
21 |  | 0.25 |  | 4.08 | TIGIT-SC82 (Fc fusion, VHH-Fc) VHH: EVQLVESGGGLVQPGGSLRLSCAASGSMSSNYAMGWFRQAPGKEREFVAAIDWSGGNTYYADSVKGRFTISADNSKNTAYLQMNSLKPEDTAVYYCAKWFYYGSGLYTLDVWGQGTLVTVSS | 
22 |  | 0.241 |  | 4.36 | TIGIT-SC83 (Fc fusion, VHH-Fc) VHH: EVQLVESGGGLVQPGGSLRLSCAASGRTFSDDAMGWFRQAPGKEREFVAAISRSGGNTYYADSVKGRFTISADNSKNTAYLQMNSLKPEDTAVYYCAKWFYYGSGLYTLDVWGQGTLVTVSS | 
23 |  | 0.206 |  | 4.14 | TIGIT-SC151 (Fc fusion, VHH-Fc) VHH: EVQLVESGGGLVQPGGSLRLSCAASGFPFSIYPMGWFRQAPGKEREFVAAISASGTLRAYADSVKGRFTISADNSKNTAYLQMNSLKPEDTAVYYCARSSSWVRIFDYWGQGTLVTVSS | 
24 |  | 0.197 |  | 9.58 | TIGIT-SC64 (Fc fusion, VHH-Fc) VHH: EVQLVESGGGLVQPGGSLRLSCAASGFAFSNFGMGWFRQAPGKERELVSAIGWSGASTYYADSVKGRFTISADNSKNTAYLQMNSLKPEDTAVYYCARRGRTIPFDYWGQGTLVTVSS | 
25 |  | 0.149 |  | 1.23 | TIGIT-SC67 (Fc fusion, VHH-Fc) VHH: EVQLVESGGGLVQPGGSLRLSCAASGFTFDRSWMGWFRQAPGKEREWVSTIYSNGTPAYADSVKGRFTISADNSKNTAYLQMNSLKPEDTAVYYCARRGLPSYSYGMDVWGQGTLVTVSS | 
26 |  | 0.259 |  | 13.4 | TIGIT-SC152 (Fc fusion, VHH-Fc) VHH: EVQLVESGGGLVQPGGNLRLSCAASGSTFSKHHAMGWFRQAPGKEREFVAGIIRSGTLKAYADSVKGRFTISADNSKNTAYLQMNSLKPEDTAVYYCTRGRAARHNLWYFDLWGQGTLVTVSS | 
27 |  | 0.0846 |  | 4.09 | TIGIT-SC65 (Fc fusion, VHH-Fc) VHH: EVQLVESGGGLVQPGGSLRLSCAASGFTFGNYDMGWFRQAPGKEREFVAAITGSGRSTYYADSVKGRFTISADNSKNTAYLQMNSLKPEDTAVYYCARGRIAASGTKVYWYFDLWGQGTLVTVSS | 
28 |  | 0.151 |  | 4.39 | TIGIT-SC193 (Fc fusion, VHH-Fc) VHH: EVQLVESGGGLVQPGGSLRLSCAASGFTFSDYWMGWFRQAPGKEREFVAAISRSGTLKAYADSVKGRFTISADNSKNTAYLQMNSLKPEDTAVYYCARGSGWPKIHFDYWGQGTLVTVSS | 
